Results as given in PMC6514445, “Enterococcal PcfF Is a Ribbon-Helix-Helix Protein That Recruits the Relaxase PcfG Through Binding and Bending of the oriT Sequence” (Frontiers in Microbiology, 2019).
Substitutions are numbered along the chain they refer to. Names and notes keep the numbering of the source.

Key:
[1] = biological target: PcfF1-54 (RHH domain, GST tag cleaved off) (Enterococcus faecalis (plasmid pCF10)) (UniProt Q5G3N6); experiment: SEC; Superdex 75 10/300 GL with molecular mass standards; PcfF1-54 after GST cleavage, absorbance at 254 nm
PcfF [2] = biological target: T1, PcfF (Enterococcus faecalis plasmid pCF10, UniProt Q5G3N6 1-118); experiment: EMSA (DNA bending); more pronounced shift than end positions; bending; EMSA: 30 nM DNA, 10 mM Tris/HCl pH 7.5, 200 mM NaCl (150 mM NaCl with PcfG), 15 min at room temperature; 20% native PAGE in TAE pH 8.0 at 4 C; details: protein: recombinant; tags: N-terminal GST, 3C-cleaved (4 extra residues left); chain copies: 2
T1 sequence: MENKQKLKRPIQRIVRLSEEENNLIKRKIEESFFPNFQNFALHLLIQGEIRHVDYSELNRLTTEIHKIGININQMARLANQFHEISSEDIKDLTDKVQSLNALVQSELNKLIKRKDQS

PcfF [3] = biological target: T1, PcfF; experiment: EMSA; EMSA: 30 nM DNA, 10 mM Tris/HCl pH 7.5, 200 mM NaCl (150 mM NaCl with PcfG), 15 min at room temperature; 20% native PAGE in TAE pH 8.0 at 4 C; details: protein: recombinant; tags: N-terminal GST, 3C-cleaved (4 extra residues left); chain copies: 2; label: 5' FITC on sense strand
PcfF I70S/R77S = PcfF I70S/R77S (Enterococcus faecalis plasmid pCF10, UniProt Q5G3N6 1-118, I70S;R77S); experiment: EMSA; 100 nM protein; as wild type; EMSA: 30 nM DNA, 10 mM Tris/HCl pH 7.5, 200 mM NaCl (150 mM NaCl with PcfG), 15 min at room temperature; 20% native PAGE in TAE pH 8.0 at 4 C; details: protein: recombinant; chain copies: 2; label: 5' FITC on sense strand
PcfF R77S = PcfF R77S (Enterococcus faecalis plasmid pCF10, UniProt Q5G3N6 1-118, R77S); experiment: as above; details: protein: recombinant; chain copies: 2; label: 5' FITC on sense strand
PcfF N73A/Q74A = PcfF N73A/Q74A (Enterococcus faecalis plasmid pCF10, UniProt Q5G3N6 1-118, N73A;Q74A); experiment: as above; details: protein: recombinant; chain copies: 2; label: 5' FITC on sense strand
PcfF I70S = PcfF I70S (Enterococcus faecalis plasmid pCF10, UniProt Q5G3N6 1-118, I70S); experiment: as above; details: protein: recombinant; chain copies: 2; label: 5' FITC on sense strand
PcfF R13L/I14A = PcfF R13L/I14A (Enterococcus faecalis plasmid pCF10, UniProt Q5G3N6 1-118, R13L;I14A); experiment: EMSA; 100 nM protein; Results also say marked decrease; EMSA: 30 nM DNA, 10 mM Tris/HCl pH 7.5, 200 mM NaCl (150 mM NaCl with PcfG), 15 min at room temperature; 20% native PAGE in TAE pH 8.0 at 4 C; details: protein: recombinant; chain copies: 2; label: 5' FITC on sense strand
PcfF R13L = PcfF R13L (Enterococcus faecalis plasmid pCF10, UniProt Q5G3N6 1-118, R13L); experiment: as above; details: protein: recombinant; chain copies: 2; label: 5' FITC on sense strand
[4] = biological target: the molecule itself; experiment: GEMMA (gas-phase electrophoretic mobility macromolecule analysis); SEC peak of wild type PcfF dialysed against 100 mM ammonium acetate pH 7.8, diluted to 0.025 mg/mL with 0.005% Tween-20
[5] = biological target: the molecule itself; experiment: SEC; Superdex 200 10/300 GL Increase; 20 mM Tris/HCl pH 7.5, 200 mM NaCl; PcfF and its variants, self-association
[6] = biological target: the molecule itself; experiment: crystal structure; SeMet-PcfF, sitting drop at 20°C, 0.2 M lithium sulfate, 0.1 M Bis-Tris pH 6.5, 25% PEG 3350; space group P2_(1), 4 molecules in the asymmetric unit; 1.9 Å
PcfF [7] = biological target: T1, PcfF; experiment: EMSA (DNA bending); EMSA: 30 nM DNA, 10 mM Tris/HCl pH 7.5, 200 mM NaCl (150 mM NaCl with PcfG), 15 min at room temperature; 20% native PAGE in TAE pH 8.0 at 4 C; details: protein: recombinant; tags: N-terminal GST, 3C-cleaved (4 extra residues left); chain copies: 2

“PcfF1-54 (RHH domain, GST tag cleaved off) (from UniProt Q5G3N6 1-54) (domain or fragment)” showed a stoichiometry N [1] of 2.

B1: oriT middle 120 bp (dsDNA)
DNA 1: GCGAAATATTGGTACCCCATGGAATCGAGGGATCCTCTAGTCGCAACATGCTAGCATGTTGCTCCGCTTGCAAAAAGAAAAGTCGACACGCGTAGATCTGCTAGCATCGATCCATGGACT
DNA 2: AGTCCATGGATCGATGCTAGCAGATCTACGCGTGTCGACTTTTCTTTTTGCAAGCGGAGCAACATGCTAGCATGTTGCGACTAGAGGATCCCTCGATTCCATGGGGTACCAATATTTCGC
B1: binds (PcfF [2]).

B2: oriT 40 bp (dsDNA)
DNA 1: TCGCAACATGCTAGCATGTTGCTCCGCTTGCAAAAAGAAA
DNA 2: TTTCTTTTTGCAAGCGGAGCAACATGCTAGCATGTTGCGA
With B2 the Kd (PcfF [3]) was roughly 100 nM, the binding result (PcfF I70S/R77S) was “binds” and the binding result (PcfF R77S) was “binds”. B2: binds (PcfF N73A/Q74A); binds (PcfF I70S); no binding (PcfF R13L/I14A). B2: no binding (PcfF R13L).

B3: PcfF (wild type, full length, GST tag cleaved off) (natural protein)
chain: T1 sequence
notes: PcfF accessory factor encoded by plasmid pCF10 of Enterococcus faecalis; GenBank AAW51324; 118 residues, 14 kDa; Cloned in pGEX-6P-2 (BamHI/XhoI); the same is likely here; also called wt PcfF; accessory factor PcfF; source: E. coli BL21(DE3), purified (glutathione-agarose, SEC, 3C protease cleavage, second SEC, reverse purification); not shown: GST, N-terminal, cleaved
For B3, the “stoichiometry N” value [4] was roughly 2.

B4: PcfF R16L (natural protein)
chain: T1 sequence with R16L
notes: PcfF of plasmid pCF10, Enterococcus faecalis; GenBank AAW51324; 118 residues; source: E. coli BL21(DE3), purified (glutathione-agarose, SEC)
B4: binds [5].

B5: PcfF I70S/R77S (as run on SEC) (natural protein)
chain: T1 sequence with I70S, R77S
notes: as for B4
B5: binds [5].

B6: PcfF Q105W (natural protein)
chain: T1 sequence with Q105W
notes: PcfF of plasmid pCF10, Enterococcus faecalis; GenBank AAW51324; 118 residues; also called PcfF_(Q105A/W) variants; source: E. coli BL21(DE3), purified (glutathione-agarose, SEC)
B6: binds [5].

B7: PcfF R13L/I14A (natural protein)
chain: T1 sequence with R13L, I14A
notes: as for B4
B7: binds [5].

B8: PcfF R77S (as run on SEC) (natural protein)
chain: T1 sequence with R77S
notes: as for B4
B8: binds [5].

B9: Selenomethionine-derivatized PcfF (full length) (natural protein)
chain: T1 sequence
modifications: selenomethionine in place of methionine
notes: PcfF accessory factor encoded by plasmid pCF10 of Enterococcus faecalis; GenBank AAW51324; 118 residues; Probably with the GST cleaved off, as for the wild type; 4 molecules in the asymmetric unit (dimer of dimers); also called SeMet-PcfF; source: E. coli BL21(DE3) in M9 minimal medium with L-selenomethionine, purified as wild type PcfF with 0.5 mM TCEP
B9: binds [6].

B10: PcfF R13L (natural protein)
chain: T1 sequence with R13L
notes: as for B4
B10: binds [5].

B11: PcfF R13L/R16L (natural protein)
chain: T1 sequence with R13L, R16L
notes: as for B4
B11: binds [5].

B12: PcfF I14A (natural protein)
chain: T1 sequence with I14A
notes: as for B4
B12: binds [5].

B13: PcfF Q105A (natural protein)
chain: T1 sequence with Q105A
notes: as for B6
B13: binds [5].

B14: PcfF R13L/I14A/R16L (natural protein)
chain: T1 sequence with R13L, I14A, R16L
notes: as for B4
B14: binds [5].

B15: PcfF I70S (as run on SEC) (natural protein)
chain: T1 sequence with I70S
notes: as for B4
B15: binds [5].

B16: PcfF N73A/Q74A (as run on SEC) (natural protein)
chain: T1 sequence with N73A, Q74A
notes: as for B4
B16: binds [5].

B17: oriT 3' 120 bp (dsDNA)
DNA 1: GTCTCGAGTTTAAAGATATCCAGCTGCCCGGGAGGCCTTCGCGAAATATTGGTACCCCATGGAATCGAGGGATCCTCTAGTCGCAACATGCTAGCATGTTGCTCCGCTTGCAAAAAGAAA
DNA 2: TTTCTTTTTGCAAGCGGAGCAACATGCTAGCATGTTGCGACTAGAGGATCCCTCGATTCCATGGGGTACCAATATTTCGCGAAGGCCTCCCGGGCAGCTGGATATCTTTAAACTCGAGAC
B17: binds (PcfF [7]).

B18: random 44 bp DNA (dsDNA)
DNA 1: AGTGAACTGAAAGAAGAAACACACGTTGCATGAAGAGCTATATA
DNA 2: TATATAGCTCTTCATGCAACGTGTGTTTCTTCTTTCAGTTCACT
B18: no binding (PcfF [3]).
